US20250108096A1, “ALCOHOL CLEANSING METHODS” (Aperiam Bio, Inc., priority 2023, published 2025)

Experiments:
Type in all cases: in vivo
[1] = test system: ethanol levels in circulation; assay: Blood ethanol in mice after intratracheal commercial ADH and ALDH (Example 5); conditions: 4 g/kg ethanol oral gavage, intratracheal 60 minutes later: 2 mg or 600 U ADH, 10 mg or 20 U ALDH, each with 0.15 mmol NAD+, 2 mice per group, FIG. 6
Experimental: Enzyme and Enzyme Solution: Alcohol dehydrogenase (ADH) from Saccharomyces cerevisiae lyophilized powder), ≥300 units/mg protein, was utilized (Sigma-Aldrich; A7011). NAD utilized was obtained commercially (Sigma-Aldrich; SKU 10127965001). The Enzyme plus NAD solution was prepared by diluting 100 mg of ADH and 100 mg of NAD in 2 mL of PBS. ADH plus NAD^+ solution was prepared by diluting 100 mg of ADH plus 100 mg NAD^+ in 2 mL of phosphate buffered saline (PBS) on the day the study protocol began.
Aldehyde dehydrogenase (ALDH) (lyophilized powder), ≥2.0 units/mg protein potassium-activated, 50 mg total (Cymit; CAS: 9028-88-0) was utilized. ALDH plus NAD^+ solution was prepared by diluting 50 mg ALDH and 100 mg NAD^+ in 0.500 mL of PBS on the day the study protocol began. Any unused ALDH plus NAD^+ solution was stored in a −80° C.
(§1) Ethanol Solution: Non-denatured ethanol was diluted to a 70% volume/volume solution.
(§2) Ethanol Detection: Ethanol was detected using the Sigma-Aldrich Ethanol Assay Kit (MAK076) according to the manufacturer's protocol for colorimetric detection. Several dilutions for a 5 μL blood draw were tested to ensure the sample was within the linear range of the standard curve. Working in a lab space exposed to ethanol vapors was avoided. […]

[2] = test system: ethanol levels in circulation; assay: Blood ethanol in mice after intratracheal yeast ADH and human ALDH2 variant (Example 6); conditions: 2 g/kg ethanol oral gavage, intratracheal 60 minutes later: 2 mg or 600 U ADH, 0.15 mmol NAD+, with or without 1.2 mg variant ALDH, 2 mice per group, FIG. 7
Experimental: Enzyme and Enzyme Solution: Alcohol dehydrogenase (ADH) from Saccharomyces cerevisiae lyophilized powder), ≥300 units/mg protein, was utilized (Sigma-Aldrich; A7011). NAD^+ utilized was obtained commercially (Sigma-Aldrich; SKU 10127965001). The Enzyme plus NAD^+ solution was prepared by diluting 100 mg of ADH and 100 mg of NAD^+ in 2 mL of PBS. ADH plus NAD^+ solution was prepared by diluting 200 mg of ADH plus 200 mg NAD^+ in 2 mL of phosphate buffered saline (PBS) on the day the study protocol began. A variant of human ALDH was utilized.
as §1
Ethanol Detection: Ethanol was detected using the Abcam Ethanol Assay Kit (ab65343) according to the manufacturer's protocol for colorimetric detection. Several dilutions for a 5 μL blood draw were tested to ensure the sample was within the linear range of the standard curve. Working in a lab space exposed to ethanol vapors was avoided.
To evaluate the combined effect of ADH and a variant ALDH enzyme delivery to the lungs of mice on ethanol levels in circulation after acute ethanol intoxication, ethanol control and experimental group mice were administered 2 g/kg ethanol by oral gavage (90 μL of 70% ethanol solution for a 25 g mouse) at time one. […]

[3] = test system: ethanol levels in circulation; assay: Alcohol clearance in mice by pulmonary delivery of ADH, Abcam Ethanol Detection kit (Example 2); conditions: protocol of Example 1, FIG. 5
Experimental: However, the Abcam Ethanol Detection kit was utilized for ethanol detection and the experimental group delivered ADH and NAD^+ were administered 1 mg ADH, 0.15 mmole NAD^+ (as opposed to 2 mg ADH, 0.15 mmole NAD^+ utilized in Example 1).

[4] = test system: ethanol levels in circulation; assay: Blood ethanol in mice after intratracheal ADH, variant ALDH and variant NOX (Example 7); conditions: 2 g/kg ethanol oral gavage, intratracheal 60 minutes later: 300 μg ADH, 2.52 mg variant ALDH, 250 μg variant NOX, no NAD+, 2 mice per group, FIG. 8
Experimental: Enzyme and Enzyme Solution: Alcohol dehydrogenase (ADH) from Saccharomyces cerevisiae lyophilized powder), ≥300 units/mg protein, was utilized (Sigma-Aldrich; A7011). ADH solution was prepared by diluting 200 mg of ADH in 2 mL of phosphate buffered saline (PBS) on the day the study protocol began. A variant of human ALDH (hALDH2) and a variant of the Lactobacillus brevis NOX enzyme were utilized. The variant hALDH2 and variant NOX enzymes were generated in Escherichia coli and each comprise an N-terminal HIS-tag to facilitate purification. A variant hALDH2 solution was prepared at a concentration of 60 mg/mL and a variant NOX solution was prepared at 50 mg/mL.
as §1, §2

[5] = test system: ethanol levels in circulation; assay: Circulating ethanol levels after acute ethanol intoxication, ADH delivered to mouse lung (Example 1); conditions: mice
Experimental: Enzyme and Enzyme Solution: Alcohol dehydrogenase (ADH) from Saccharomyces cerevisiae lyophilized powder), ≥300 units/mg protein, was utilized (Sigma-Aldrich; A7011). NAD^+ utilized was obtained commercially (Sigma-Aldrich; SKU 10127965001). Enzyme solution was prepared by diluting 100 mg of ADH in 2 mL of phosphate buffered saline (PBS) on the day the study protocol began. The Enzyme plus NAD^+ solution was prepared by diluting 100 mg of ADH and 100 mg of NAD^+ in 2 mL of PBS.
Ethanol Solution: Non-denatured ethanol was diluted to a 20% weight/volume solution with PBS (4.3M ethanol solution).
Blood Draw Dilution: Blood was drawn from mice at time points zero, 30 minutes, 1 hour and/or 4 hours after ethanol gavage (FIG. 2) and diluted 100× in buffer. The blood was processed for plasma, 50 μl of blood from the tail vein at each time point was collected using 125 μl heparinized capillary tube (Fisher Sci Cat #14-915-64). Using a pipette the heparinized blood was forced out by air of the capillary tube and into a 0.6 ml mct. The tubes were kept on ice and subsequently spun down to recover the plasma. Plasma was removed and placed into a new tube and kept on ice until needed for the same day assay. […]
Ethanol Detection: Ethanol was detected using the Sigma-Aldrich Ethanol Assay Kit (MAK076) according to the manufacturer's protocol for colorimetric detection. […]

B1: Alcohol dehydrogenase (ADH) from Saccharomyces cerevisiae (protein, UniProt P00330 2-348, looked up)
Alcohol dehydrogenase 1: SIPETQKGVIFYESHGKLEYKDIPVPKPKANELLINVKYSGVCHTDLHAWHGDWPLPVKLPLVGGHEGAGVVVGMGENVKGWKIGDYAGIKWLNGSCMACEYCELGNESNCPHADLSGYTHDGSFQQYATADAVQAAHIPQGTDLAQVAPILCAGITVYKALKSANLMAGHWVAISGAAGGLGSLAVQYAKAMGYRVLGIDGGEGKEELFRSIGGEVFIDFTKEKDIVGAVLKATDGGAHGVINVSVSEAAIEASTRYVRANGTTVLVGMPAGAKCCSDVFNQVVKSISIVGSYVGNRADTREALDFFARGLVKSPIKVVGLSTLPEIYEKMEKGQIVGRYVVDTSK
notes: Commercial yeast alcohol dehydrogenase, lyophilized powder, ≥300 units/mg protein (Sigma-Aldrich; A7011)
effect on removing alcohol (blood ethanol level) [1]: stronger effect on removing alcohol compared to ALDH alone | amount of alcohol in the blood [2]: lowered the amount of alcohol in the blood | blood alcohol levels relative to animals that were not administered ADH [3]: reduced | amount of alcohol in the blood [4]: lowered the amount of alcohol in the blood | blood alcohol levels relative to animals that were not administered ADH ([5]; ethanol 2 g/kg oral gavage, ADH intratracheally 15 minutes after gavage, blood at 30 minutes, 1 hour, 4 hours, FIG. 3): reduced | circulating ethanol levels relative to control ([5]; ethanol by oral gavage, intratracheal administration of ADH, FIG. 1): reduced
